From article PMC2696619
Where two headings read alike, the source gives them in different places.

Key:
human C3b (human) [1] = target: human C3b (human) (UniProt P01024); experiment: radioligand binding
human C3b (human) [2] = target: human C3b (human) (UniProt P01024); experiment: radioligand binding; remark: listed apart in the source

IC50 (human C3b (human) [1]): 200 nM | IC50 (human C3b (human) [2]): 1000 nM
Substance: wildtype rH19-20 (recombinant domains 19-20 of factor H) (from UniProt P08603 1107-1231) (domain or fragment)
